To fix the notation:
T1: Human CD53-CHO (full-length human CD53 over-expressed on CHO-K1 cells) (human, UniProt P19397 1-219)
T1 construct: Tetraspanin cell-surface antigen
T1 sequence: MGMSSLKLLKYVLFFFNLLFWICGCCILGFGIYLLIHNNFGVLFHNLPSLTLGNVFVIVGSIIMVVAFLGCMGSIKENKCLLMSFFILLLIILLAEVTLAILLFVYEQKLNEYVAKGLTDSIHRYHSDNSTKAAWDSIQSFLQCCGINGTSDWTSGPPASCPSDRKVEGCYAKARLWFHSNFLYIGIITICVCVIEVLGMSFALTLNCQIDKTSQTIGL

B1: 4J16 (antibody, V domains shown)
VH: EVQLQQSGAELVRPGASVRLSCTASGFNIKDDFLHWVNQRPEQGLEWIGRIDPANGNTKYAPKFRDRATITADTSSNTAYLQLSSLTSEDTAVYYCVRVYGDYWGQGTTLTVSS
VL: DIVMTQAAFSNPVTLGTSASISCRSSKSLLHSNGITYLYWYLQKPGQSPQLLIYQMSNLASGVPDRFSSSGSGTDFTLRISRVEAEDVGVYYCAQNLELPLTFGAGTKLELK
notes: Murine anti-human CD53 mAb purified from subcloned hybridoma; detected with anti-mouse IgG
B2: 2M05 (antibody, V domains shown)
VH: EVQLQQSVAELVRPGASVKLSCTTSGFNIKDTYMHWVKQRPEQGLEWIGRIDPANGHTKYAPKFQDKATIAADTSSNTAYLQLSSLTSEDTAIYYCACGWDAAFAFWGQGTLVTVSA
VL: DIVMTQAAPSVPVTPGESVSISCRSGKSLLHSNGDTYLYWFLQRPGQSPQLLIYRMSNLASGVPDRFSGSGSGTAFTLRISRVEAEDVGIYYCLQHLEFPLTFGAGTKLELK
notes: as for B1
B3: 9J08 (antibody, V domains shown)
VH: QVQLQQPGAELVKPGASVKLSCKASGYTFTSCWMHWVKQRPGQGLEWIGMIHPNGYSSNYNGKFKNKATLTIDNSSGTAYMQLSGLTSEDSAVYYCARDDYAETMDYWGQGTSVTVSS
VL: DVVMTQTPLSLSVTIGQPASISCKSSQSLLYSDGKTYLNWLQQRPGQSPKRLMYQVSKLDPGIPDRFSGSGSETDFTLRISRVEAEDLGVYYCLQGTYYPWTFGGGTKLEIK
notes: as for B1
B4: 9E17 (antibody, V domains shown)
VH: QLQQSGAEFVRPGASVKLSCTASGFNIKDDYIHWVKQRPEQGLEWIGRIDPANGYTEYAPKFQGKATITSDTSSNTAYLQLSSLTSEDTAVFYCVWHWDYWGQGTTLTVSS
VL: DIVMTQAAFSNPVTLGTSASISCSSYKSLQHNNGITYLYWFLQRPGQSPHLLIYRMSNLASGVPDRFSGSGSGTDFTLRISRVEAEDVGVYYCAQMLERPFTFGTGTKLEIK
notes: as for B1
B5: 10B08 (antibody, V domains shown)
VH: QLQQSGTELVRPGASVKLSCTSSGFNIKDDFMHWVKQRPEQGLEWIGWIDPENGATAYASKFQGKATITADTSSNTAYLQLSSLTSEDTAVYYCTTFGDYYGGRKDYWGQGTTLTVSS
VL: B4 VL with Y26S, Q30L, N32S, F41Y, H50Q, R79G, F101R, T105G
notes: as for B1
B6: 4G15 (antibody, V domains shown)
VH: EVQLQQSGAELVRPGASVKLSCTTSGFNIKDDFMHWVKQRPEQGLEWIGWIDPENGNTQYASKFQGKATITADTSSNTAYLQLSSLTSEDTAVYYCTSYYEETMDYWGQGTSVTVSS
VL: B4 VL with Y26S, Q30L, N32S, F41Y, H50Q, F101R, T105G
notes: as for B1
B7: 4K13 (antibody, V domains shown)
VH: EVQLQQSVAELVRPGASVKLSCTASGLNIKNTYMNWVKQRPEQGLEWIGRIDPANGYTKYAPKFQGKTTITAATSSNTAFLQLSSLTSGDTAIYYCTTAVVATGDYWGQGTTLTVSS
VL: B4 VL with S24R, Y26S, Q30L, N32S, N33D, H50Q, R99F
notes: as for B1
B8: 10H16 (antibody, V domains shown)
VH: EVQLQQSGAELVRPGASVKLSCTVSGFNIKDDFMNWVRQRPEQGLEWIGRIDPENGNTKYAPKFQDKATITADTSSNTAHLHLSSLTSEDTAVYFCARWIPPYWGQGTLVTVSA
VL: DIVMTQAAPSVHVTPGESASISCRSSKSLLHSNGDTYLYWFLQRPGQSPQLLIYRMSNLASGAPDRFSGSGSGTAFTLRISRVEAEDVGVYYCMQLLEYPYTFGGGTKLEIK
notes: as for B1
B9: 5K16 (antibody, V domains shown)
VH: EVQLQQSVAELVRPGASVKLSCTASGFNIKNTYMYWVKQRPEQGLEWIGRIDPANGHTKCAPKFQGKATITADTSSNTAYLQLSSLTSEDSAIFYCARGEDYAMDYWGQGTSVTVSS
VL: B8 VL with A7S, H12P, A19V, L51V, A63V, Y101F, G105S
notes: as for B1
B10: 3G02 (antibody, V domains shown)
VH: EVQLQQSVAELVRPGASVKLSCTASGFNIKNTYMHWVKQRPEQGLEWIGRIDPAIGYTEYAPKFQGKATITADTSSNTAWLQLSSLTSEDTAIYYCAGGGPYYAMDYWGRGTSVTVSS
VL: B2 VL with V11I, G26S, L51V, D65A, I90V, L94M, F99Y, L101F
notes: as for B1
B11: 4C22 (antibody, V domains shown)
VH: B8 VH with V24A, R38K, E54A, N57H, H80F
VL: B8 VL with H12P, A63V
notes: as for B1
B12: 4L19 (antibody, V domains shown)
VH: QVQLQQSGAELMKPGASVKLSCKATGYTFTGYWIEWVKQRPGHGLEWIGEISSGGYNTNYNKKFKGKATFTVDTSSNTAYMQLSSLTTEDSAIYYCTRDSNDYYFDYWGQGTTLTVSS
VL: DVVMTQTPLTLSVTIGQPASISCKSSQSLLHRNGKTHLNWLLQRPGQSPKLLIYLVSKLESGVPDRFSGSGSGTDFTLRISRVEAEDLGVYYCLQVTHFPYTFGSGTKLEIK
notes: as for B1
B13: 5G03 (antibody, V domains shown)
VH: EVQLQQSGAELVRPGASVKLSCTASGFNIKDDFMHWVRQRPDQGLEYIGRFDPAIGNAKYAPKFQDKATLTADTSSNTAYLHLSSLTSEDTAVYYCAIFYAYWGQGTLVTVSA
VL: DVVMTQTPLSLPVSLGDQASISCRSSQSLVHSNRNTYLHWYLQKPGQSPKLLIYKVSNRFSGVPDRFSGSGSGTDFTLKISRVEAEDLGVYFCSQSTHVPFTFGSGTKLEIK
notes: as for B1

Changes are numbered by the printed parent chain.

The experiment has as its target T1, Human CD53-CHO (full-length human CD53 …). The experiment in a line: flow cytometry on CD53-CHO cells, anti-mouse IgG AF647 gMFI, 4-parameter fit. As for the experimental part:
Binding of anti-human CD53 antibodies was determined by flow cytometry for their ability to bind human CD53-CHO cells compared to parental CHO-K1 cells. All assay steps were performed in FACS buffer (phosphate buffered saline pH 7.4 supplemented with 2% fetal bovine serum). Twenty thousand cells were seeded in 384-well plates and washed twice with ice cold buffer. Cells were incubated with purified antibodies titrated 3-fold from 200 nM to 0.09 nM at 4° C. for 1 hour with gentle agitation, then washed twice with FACS buffer and incubated with anti-mouse IgG Alexa Fluor® 647 and incubated at 4° C. for 40 minutes. Cells were washed twice and resuspended in FACS buffer. Analysis was preformed on the IntelliCyt® iQue Screener and gMFI values for Alexa Fluor® 647 were generated. EC50 values were determined in GraphPad Prism8. Concentration was transformed from nM to Log 10 nM and curves were fit with a nonlinear regression of log(agonist) vs. response−Variable slope (four parameters) or Y=Bottom+(Top−Bottom)/(1+10\hat{ }((LogEC50−X)*HillSlope)). EC50 values for all anti-human CD53 antibodies can be found in Table 6, and representative binding curves can be found in FIG. 7. Binding to CD53-CHO is represented by closed symbols and binding to parental CHO-K1 cells is represented by open symbols.
As a reminder, the EC50 is the concentration at which the effect is half-maximal. Read a high EC50 as lower potency in that assay. Consider B1, for which the EC50 was 1.6 nM. In the case of B2, it took 4.6 nM to reach a half-maximal effect (EC50). Turning to B3, the EC50 turned out to be 2.7 nM. B4 gave a 50% effective concentration (EC50) of 2.1 nM. With B5, the EC50 is 3.1 nM. B6 showed an EC50 of 3.8 nM. B7 had an EC50 of about 1 nM.

Molecule B8 displayed an EC50 of about 8 nM. Molecule B9 had an EC50 of 5.6 nM. The molecule B10 showed an EC50 of about 7 nM. In turn, B11 came in with an EC50 of about 7 nM. B12: the EC50 was 4.3 nM. Consider B13, for which the EC50 came out at 9.1 nM.

The record behind these values is US20220251233A1 (VERSEAU THERAPEUTICS, published 2022).
